Experimental data: patent US20140314667A1 (Amgen, published 2014)
Where a chain is given by its changes, count along the chain named. Values joined by “and” are separate entries in the source; they are usually repeats but may differ in a detail not shown here. Identical values can stand only once.

B1: Ab 131-DM1 conjugate (antibody, V domains shown)
VH: QVQLVESGGGVVQSGRSLRLSCAASGFTFRNYGMHWVRQAPGKGLEWVAVIWYDGSDKYYADSVRGRFTISRDNSKNTLYLQMNSLRAEDTAVYYCARDGYDILTGNPRDFDYWGQGTLVTVSS
VL: DTVMTQTPLSSHVTLGQPASISCRSSQSLVHSDGNTYLSWLQQRPGQPPRLLIYRISRRFSGVPDRFSGSGAGTDFTLEISRVEAEDVGVYYCMQSTHVPRTFGQGTKVEIK
modifications: DM1 linked through SMCC (MCC) to amine groups of the antibody, 3.0-3.5 DM1 molecules per antibody; sites not stated
B2: SC-EGFRvIII-XG1-139 (antibody, IgG1, V domains shown)
VH: EVQVLESGGGLVQPGGSLRLSCAASGFTFSSYAMSWVRQAPGKGLEWVSAISGSGGSTNYADSVKGRFTISRDNSKNTLYLQMNSLRAEDTAVYYCAGSSGWSEYWGQGTLVTVSS
VL: DIQMTQSPSSLSASVGDRVTITCRASQGIRNNLAWYQQKPGKAPKRLIYAASNLQSGVPSRFTGSGSGTEFTLIVSSLQPEDFATYYCLQHHSYPLTSGGGTKVEIK
notes: Recombinant IgG1 kappa; also called sc139; SC139
B3: SC-EGFRvIII-XG1-250 (antibody, IgG1, V domains shown)
VH: B2 VH with V2G, V4L, L11W, G16E, M83V, A88V
VL: DIQMTQSPSSLSASVGDSVTITCRTSQGIRKNLGWYQQKPGKAPKRLIYAASSLQSGVPSRFSGSGSGTEFTLTISRLQPEDFATYYCLQHHSYPLTFGGGTRVEIR
notes: Recombinant IgG1 kappa; also called sc250; SC250
B4: SC-EGFRvIII-XG2-170 (antibody, IgG1, V domains shown)
VH: QVQLQQSGPGLVKPSQTLSLTCAISGDSVSSNNAAWNWIRQSPARGLEWLGRTYYRSKWYNDYVVSVKSRITINPDTSKNQFSLQLNSVTPEDTAVYYCVRATAFDYWGQGTLVTVSS
VL: AIVLTQTPLSSPVTLGQPASISCRSSQSLVHRDGNTYLSWLQQRPGQPPRLLIYKISNRFSGVPDRFSGSGAGTDFTLKISRVEPDDVGVYYCMHTTQLPWTFGQGTKVEIK
notes: kappa light chain; also called sc170; SC170
B5: antibody 13.1.2 (antibody, V domains shown)
VH: QVQLVESGGGVVQPGRSLRLSCAASGFTFSSYGMHWVRQAPGKGLEWVAVIWYDGSNKYYVDSVKGRFTISRDNSKNTLYLQMNSLRAEDTAVYYCARDGWQQLAPFDYWGQGTLVTVSS
VL: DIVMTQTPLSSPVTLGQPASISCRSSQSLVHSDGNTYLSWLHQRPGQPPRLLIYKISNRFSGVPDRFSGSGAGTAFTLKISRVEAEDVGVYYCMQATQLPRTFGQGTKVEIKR
B6: SC-EGFRvIII-XG1-211 (antibody, IgG1, V domains shown)
VH: QVQLVESGGGVVQPGRSLRLSCVASGFTLSSYGMHWVRQAPGKGLEWVAVTSYDGSKKDYADSAKGRFTISRDNSKNTLYLQMNSLRAEDTAVYYCVSEGYCSSSSCYKYYYYGMDVWGQGTTVTVSS
VL: DIVMTQSPLSLPVTPGEPASISCRSSQSLLYRNGNNYLDWYLQRPGQSPQLLIYLGSNRASGVPDRFSGSGSGTDFTLKISRVEAEDVGVYYCMQALQTPRTFGQGTKVEIK
notes: Recombinant IgG1 kappa; also called sc211; SC211
B7: antibody 095 (antibody, IgG1, V domains shown)
VH: QVQLQESGPFLVKPSQTLSLTCTVSGGSISSGGYYWSWIRQHPGKGLEWIGFIYYRGNTYYNPSLKSRVTISVDTSKNQFSLKLSSVTAADTAVYYCARDGYCSRTGCYGGWFDPWGQGTLVTVSP
VL: DIVMTQTPLSSPVTLGQPASISCRSSQSLIHTDGNIYLSWLQQRPGQPPRLLIYKISNRFSGVPDRFSGSGAGTDFTLKISRVEAEDVGVYYCMQGTQFPITFGQGTRLEIK
notes: Recombinant IgG1 kappa; also called sc95; SC95
B8: SC-EGFRvIII-XG2-150 (antibody, IgG1, V domains shown)
VH: QVQLQQSGPGLVKPSQTLSLTCAISGDSVSSYSSAWNWIRQSPSRGLEWLGRAYHRSRWYYEYAVSVKSRINITPDTSKNQFSLQLNSVTPEDTAVYYCARGSRFDYWGQGTLVTVSS
VL: B4 VL with A1D, L4M, P85A, D86E, V90I, Y92F, L99F, K108R
notes: kappa light chain; also called sc150; SC150
B9: anti-EGFRvIII antibody 131 (antibody, human IgG1, V domains shown)
VH: B1 VH
VL: B1 VL
notes: Recombinant human IgG1 kappa; also called sc131
B10: SC-EGFRvIII-XG1-318 (antibody, IgG1, V domains shown)
VH: B6 VH with A64V, S103D
VL: B6 VL
notes: Recombinant IgG1 kappa; also called mAb ID 141A10
B11: SC-EGFRvIII-XG1-342 (antibody, IgG1, V domains shown)
VH: B6 VH with A64V, S103D, S105T
VL: B6 VL
notes: Recombinant IgG1 kappa; also called mAb ID 124D4
B12: SC-EGFRvIII-XG1-333 (antibody, IgG1, V domains shown)
VH: B6 VH with P41L, A64V, S103D, S105T
VL: B6 VL
notes: Recombinant IgG1 kappa; also called mAb ID 132D8
B13: SC-EGFRvIII-XG1-123/124 (antibody, IgG1, V domains shown)
VH: B6 VH with V23A, T51M, K58E, A64V, K76E, S105R
VL: B6 VL with R44K, K79N, V90H
notes: Recombinant IgG1 kappa; also called mAb ID 129A7

Biological target: T1, EGFRvIII, full length, expressed on cells (human, UniProt P00533 25-1210)
Test: cell-based or functional assay

Row | IC50 of cell growth inhibition (CellTiter-Glo, U251vIII cells) | Binder
1 | 0.068 nM DM1 equivalents and 3 ng/mL | B1

Biological target: T1, EGFRvIII, full length, expressed on …
Test: cell-based or functional assay
Remark: another data set of the same source

Row | % internalization | Binder
2 | 80.8% | B2
3 | 16.7% | B3
4 | 20.1% | B4
5 | 82.5% | B5
6 | 21.6% | B6
7 | 72.4% | B7
8 | 20% | B8

Biological target: T1, EGFRvIII, full length, expressed on …
Test: FACS on NR6 M cells, antibody at 0.25 ug/ml, no glutathione
Protocol: XenoMax derived IgG1 recombinant antibodies were expressed, purified and quantitated as described previously. Antibodies were further assayed for their ability to internalize the EGFRvIII receptor in NR6 M cells. […] The cells were washed with cold 10% FCS in PBS and secondary antibody (SS Alexa antihuman IgG Fab) at 3 μg/ml Fab was added and incubated for 7 mins on ice. The cells were washed with cold 10% FCS in PBS once and then resuspended in cold media. Next, two sets of the triplicate were incubated at 37° C. and the remaining set was incubated at 4° C. for 1 hr. After that the cells incubated at 4° C. and one set of the cells incubated at 37° C. were treated with glutathione (as previously mentioned) for 1 hr on ice. Then the cells were washed and resuspended in 100 μl of cold 1% FCS in PBS and analyzed by FACS. The % internalization was calculated from the geometric mean obtained from the FACS analysis [(mean at 37° C. with glutathione−mean at 4° C. with glutathione)/(mean at 37° C. without glutathione−mean at 4 C with glutathione)].

Row | FACS Geometric mean, without glutathione 37 C | Binder
9 | 22.6 geometric mean | B2
10 | 24.1 geometric mean | B3
11 | 20 geometric mean | B4
12 | 22.1 geometric mean | B5
13 | 20.8 geometric mean | B6
14 | 22.6 geometric mean | B7
15 | 20.3 geometric mean | B8

Biological target: T2, EGFRvIII-Rabbit Fc fusion protein (human; rabbit, UniProt P00533 25-645)
T2 construct: Made in 293F cells; also called EGFRvIII-RbFc; EGFRvIII-Rab Ig Fc fusion protein; not shown: Hinge-CH2-CH3 domain of rabbit IgG (721 bp fragment)
Test: ELISA, recombinant antibody supernatant on coated EGFRvIII-RbFc, 1.5 ug/ml
Protocol: The secretion ELISA tests were performed as follows. For Ab secretion, 2 μg/mL of Goat anti-human IgG H+L and for antigen binding, 1.5 μg/ml of EGFRvIII-Rab Ig Fc fusion protein was coated onto Costar Labcoat Universal Binding Polystyrene 96 well plates and held overnight at four degrees. The plates were washed five times with dH₂O. Recombinant antibodies were titrated 1:2 for 7 wells from the undiluted minilipofection supernatant. The plates were washed five times with dH₂O. A goat anti-human IgG Fc-specific HRP-conjugated antibody was added at a final concentration of 1 μg/mL for 1 hour at RT for the secretion plates and binding plates detected with 1 μg/ml Rb anti Hu Fc for 1 hour at room temperature. The plates were washed five times with dH₂O. The plates were developed with the addition of TMB for 30 minutes and the ELISA was stopped by the addition of 1 M phosphoric acid. Each ELISA plate was analyzed to determine the optical density of each well at 450 nm.

Row | Titer, antigen binding | Binder
16 | > 64 titer (1:x dilution of supernatant) | B2
17 | > 64 titer (1:x dilution of supernatant) | B3
18 | > 64 titer (1:x dilution of supernatant) | B9
19 | > 64 titer (1:x dilution of supernatant) | B4
20 | 64 titer (1:x dilution of supernatant) | B10
21 | > 64 titer (1:x dilution of supernatant) | B6
22 | > 64 titer (1:x dilution of supernatant) | B11
23 | > 64 titer (1:x dilution of supernatant) | B12
24 | > 64 titer (1:x dilution of supernatant) | B13
25 | > 64 titer (1:x dilution of supernatant) | B8
